B1: hsREC2 (human REC2, ATP-dependent homologous pairing protein) (protein)
chain: MGSKKLKRVGLSQELCDRLSRHQILTCQDFLCLSPLELMKVTGLSYRGVHELLCMVSRACAPKMQTAYGIKAQRSADFSPAFLSTTLSALDEALHGGVACGSLTEITGPPGCGKTQFCIMMSILATLPTNMGGLEGAVVYIDTESAFSAERLVEIAESRFPRYFNTEEKLLLTSSKVHLYRELTCDEVLQRIESLEEEIISKGIKLVILDSVASVVRKEFDAQLQGNLKERNKFLAREASSLKYLAEEFSIPVILTNQITTHLSGALASQADLVSPADDLSLSEGTSGSSCVIAALGNTWSHSVNTRLILQYLDSERRQILIAKSPLAPFTSFVYTIKEEGLVLQAYGNS
- Hill coefficient of ATP hydrolysis (ATPase activity) at ATP concentrations of <100 µM: the Hill coefficient (1.8)

Reference: patent US6410226
